Test results: paper PMC2709974 (Journal of molecular biology, 2009)

Key:
[1] = biological target: the molecule itself; assay: SEC
[2] = biological target: the molecule itself; assay: AUC
[3] = biological target: T1, IscR wild-type (as purified, about 60% [2Fe-2S] occupied) (Escherichia coli, UniProt P0AGK8 1-162); assay: fluorescence anisotropy
T1 sequence: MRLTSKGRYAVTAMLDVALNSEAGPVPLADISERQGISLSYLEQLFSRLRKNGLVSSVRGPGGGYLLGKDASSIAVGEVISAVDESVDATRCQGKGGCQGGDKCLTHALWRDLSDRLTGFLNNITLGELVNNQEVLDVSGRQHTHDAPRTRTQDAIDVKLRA

[4] = biological target: T2, IscR-C92A/C98A/C104A (clusterless) (Escherichia coli, UniProt P0AGK8 1-162, C92A;C98A;C104A); assay: fluorescence anisotropy
T2 sequence: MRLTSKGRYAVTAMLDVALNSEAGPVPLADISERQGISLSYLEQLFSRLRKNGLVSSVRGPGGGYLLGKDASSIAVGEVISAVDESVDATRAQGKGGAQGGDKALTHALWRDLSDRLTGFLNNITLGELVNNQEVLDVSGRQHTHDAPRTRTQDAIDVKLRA

[5] = biological target: T2, IscR-C92A/C98A/C104A (clusterless); assay: competition
[6] = biological target: T1, IscR wild-type (as purified, about 60% …); assay: fluorescence anisotropy; remark: listed apart in the source
[7] = biological target: T2, IscR-C92A/C98A/C104A (clusterless); assay: fluorescence anisotropy; remark: listed apart in the source

B1: wild-type IscR (as purified, 35% occupied with [2Fe-2S] cluster) (natural protein, Escherichia coli, UniProt P0AGK8 1-162, looked up)
chain: MRLTSKGRYAVTAMLDVALNSEAGPVPLADISERQGISLSYLEQLFSRLRKNGLVSSVRGPGGGYLLGKDASSIAVGEVISAVDESVDATRCQGKGGCQGGDKCLTHALWRDLSDRLTGFLNNITLGELVNNQEVLDVSGRQHTHDAPRTRTQDAIDVKLRA
Question: B1 was tested. Which “stoichiometry N” value [1] did it give?
Answer: 2

B2: apo-IscR (generated from wild-type IscR by treatment with 2,2'-dipyridyl) (natural protein, Escherichia coli, UniProt P0AGK8 1-162, looked up)
chain: MRLTSKGRYAVTAMLDVALNSEAGPVPLADISERQGISLSYLEQLFSRLRKNGLVSSVRGPGGGYLLGKDASSIAVGEVISAVDESVDATRCQGKGGCQGGDKCLTHALWRDLSDRLTGFLNNITLGELVNNQEVLDVSGRQHTHDAPRTRTQDAIDVKLRA
Question: With B2 as the binder, how does the “stoichiometry N” value [1] read?
Answer: 2

B3: IscR-C92A/C98A/C104A (natural protein, Escherichia coli, UniProt P0AGK8 1-162, looked up)
chain: MRLTSKGRYAVTAMLDVALNSEAGPVPLADISERQGISLSYLEQLFSRLRKNGLVSSVRGPGGGYLLGKDASSIAVGEVISAVDESVDATRAQGKGGAQGGDKALTHALWRDLSDRLTGFLNNITLGELVNNQEVLDVSGRQHTHDAPRTRTQDAIDVKLRA
Question: B3 was tested. Which “stoichiometry N” value [2] did it give?
Answer: 2

B4: hyaA site, labeled 30-mer (dsDNA)
DNA 1: ATAAATCCACACAGTTTGTATTGTTTTGTG
DNA 2: CACAAAACAATACAAACTGTGTGGATTTAT
Question: Which Kd [3] does the source give for B4 here?
Answer: 34 ± 2 nM

Question: And the Kd [4]?
Answer: 44 ± 3 nM

B5: hya -40 (dsDNA)
DNA 1: ATAAATCCACACAGTTTCTATTGTTTTGTG
DNA 2: CACAAAACAATAGAAACTGTGTGGATTTAT
Question: Which IC50 [5] does the source give for B5 here?
Answer: 39 nM

B6: hya -36(T to A) (dsDNA)
DNA 1: ATAAATCCACACAGTTTGTATAGTTTTGTG
DNA 2: CACAAAACTATACAAACTGTGTGGATTTAT
Question: For B6, which IC50 [5] is on record?
Answer: 52 nM

B7: hya -34/33 (dsDNA)
DNA 1: ATAAATCCACACAGTTTGTATTGAATTGTG
DNA 2: CACAATTCAATACAAACTGTGTGGATTTAT
Question: For B7, which IC50 [5] is on record?
Answer: 39 nM

B8: hya -32,-30 (dsDNA)
DNA 1: ATAAATCCACACAGTTTGTATTGTTATCTG
DNA 2: CAGATAACAATACAAACTGTGTGGATTTAT
Question: Which IC50 [5] does the source give for B8 here?
Answer: 18 nM

B9: hya -54,-48,-45,-37 (dsDNA)
DNA 1: ATATATCCAGACTGTTTGTAATGTTTTGTG
DNA 2: CACAAAACATTACAAACAGTCTGGATATAT
Question: B9 was tested. Which IC50 [5] did it give?
Answer: 80 nM

B10: hya -55 (A to C) (dsDNA)
DNA 1: ATCAATCCACACAGTTTGTATTGTTTTGTG
DNA 2: CACAAAACAATACAAACTGTGTGGATTGAT
Question: B10 was tested. Which IC50 [5] did it give?
Answer: 394 nM

B11: hya -51 (dsDNA)
DNA 1: ATAAATGCACACAGTTTGTATTGTTTTGTG
DNA 2: CACAAAACAATACAAACTGTGTGCATTTAT
Question: B11 was tested. Which IC50 [5] did it give?
Answer: 400 nM

B12: hya -50(C to A) (dsDNA)
DNA 1: ATAAATCAACACAGTTTGTATTGTTTTGTG
DNA 2: CACAAAACAATACAAACTGTGTTGATTTAT
Question: B12 was tested. Which IC50 [5] did it give?
Answer: 268 nM

B13: hyaA competitor (dsDNA)
DNA 1: ATAAATCCACACAGTTTGTATTGTTTTGTG
DNA 2: CACAAAACAATACAAACTGTGTGGATTTAT
Question: Which IC50 [5] does the source give for B13 here?
Answer: 29 nM

B14: hya -47 (dsDNA)
DNA 1: ATAAATCCACTCAGTTTGTATTGTTTTGTG
DNA 2: CACAAAACAATACAAACTGAGTGGATTTAT
Question: Which IC50 [5] does the source give for B14 here?
Answer: 190 nM

B15: hya -39 (dsDNA)
DNA 1: ATAAATCCACACAGTTTGAATTGTTTTGTG
DNA 2: CACAAAACAATTCAAACTGTGTGGATTTAT
Question: How did the IC50 [5] turn out when B15 was run?
Answer: 199 nM

B16: hya -35 (dsDNA)
DNA 1: ATAAATCCACACAGTTTGTATTTTTTTGTG
DNA 2: CACAAAAAAATACAAACTGTGTGGATTTAT
Question: For B16, which IC50 [5] is on record?
Answer: 505 nM

B17: hya -31 (dsDNA)
DNA 1: ATAAATCCACACAGTTTGTATTGTTTGGTG
DNA 2: CACCAAACAATACAAACTGTGTGGATTTAT
Question: How did the IC50 [5] turn out when B17 was run?
Answer: 263 nM

B18: hya -44,-42,-41,-40 (dsDNA)
DNA 1: ATAAATCCACACATTGGTTATTGTTTTGTG
DNA 2: CACAAAACAATAACCAATGTGTGGATTTAT
Question: Which IC50 [5] does the source give for B18 here?
Answer: 785 nM

B19: hya -42,-41 (dsDNA)
DNA 1: ATAAATCCACACAGTGGGTATTGTTTTGTG
DNA 2: CACAAAACAATACCCACTGTGTGGATTTAT
Question: For B19, which IC50 [5] is on record?
Answer: 300 nM

B20: hya -36(T to G) (dsDNA)
DNA 1: ATAAATCCACACAGTTTGTATGGTTTTGTG
DNA 2: CACAAAACCATACAAACTGTGTGGATTTAT
Question: Which IC50 [5] does the source give for B20 here?
Answer: 16 nM

B21: hya -36(T to C) (dsDNA)
DNA 1: ATAAATCCACACAGTTTGTATCGTTTTGTG
DNA 2: CACAAAACGATACAAACTGTGTGGATTTAT
Question: How did the IC50 [5] turn out when B21 was run?
Answer: 134 nM

B22: hya -48(C to T) (dsDNA)
DNA 1: ATAAATCCATACAGTTTGTATTGTTTTGTG
DNA 2: CACAAAACAATACAAACTGTATGGATTTAT
Question: B22 was tested. Which IC50 [5] did it give?
Answer: 48 nM

B23: Palindrome1 (dsDNA)
DNA 1: ATAAATACATACAGTTTGTATGTATTTGTG
DNA 2: CACAAATACATACAAACTGTATGTATTTAT
Question: How did the IC50 [5] turn out when B23 was run?
Answer: 202 nM

B24: Palindrome1-2 (dsDNA)
DNA 1: ATAAATCCATACAGTTTGTATGGATTTGTG
DNA 2: CACAAATCCATACAAACTGTATGGATTTAT
Question: Which IC50 [5] does the source give for B24 here?
Answer: ~10 nM

B25: randomized hya site, labeled 30-mer (dsDNA)
DNA 1: ATCATCCGTCTTATGTTAATTATAATGGTG
DNA 2: CACCATTATAATTAACATAAGACGGATGAT
Question: Does B25 bind [6]?
Answer: no binding

Question: Does B25 bind [7]?
Answer: no binding

B26: hya -53,-52 (dsDNA)
DNA 1: ATAATCCCACACAGTTTGTATTGTTTTGTG
DNA 2: CACAAAACAATACAAACTGTGTGGGATTAT
Question: B26 was tested. Which IC50 [5] did it give?
Answer: 33 nM

B27: hya -49 (dsDNA)
DNA 1: ATAAATCCTCACAGTTTGTATTGTTTTGTG
DNA 2: CACAAAACAATACAAACTGTGAGGATTTAT
Question: For B27, which IC50 [5] is on record?
Answer: 44 nM

B28: hya -46 (dsDNA)
DNA 1: ATAAATCCACATAGTTTGTATTGTTTTGTG
DNA 2: CACAAAACAATACAAACTATGTGGATTTAT
Question: With B28 as the binder, how does the IC50 [5] read?
Answer: 37 nM

B29: hya -44,-43 (dsDNA)
DNA 1: ATAAATCCACACATGTTGTATTGTTTTGTG
DNA 2: CACAAAACAATACAACATGTGTGGATTTAT
Question: How did the IC50 [5] turn out when B29 was run?
Answer: 89 nM

B30: hya -42 (dsDNA)
DNA 1: ATAAATCCACACAGTATGTATTGTTTTGTG
DNA 2: CACAAAACAATACATACTGTGTGGATTTAT
Question: B30 was tested. Which IC50 [5] did it give?
Answer: 73 nM

B31: hya -41 (dsDNA)
DNA 1: ATAAATCCACACAGTTAGTATTGTTTTGTG
DNA 2: CACAAAACAATACTAACTGTGTGGATTTAT
Question: With B31 as the binder, how does the IC50 [5] read?
Answer: 34 nM
